Changes are numbered by the printed parent chain.
T1: baculovirus-produced soluble human ICAM-R (Homo sapiens, UniProt P32942)
T1 sequence (P32942 30-485 limits assumed): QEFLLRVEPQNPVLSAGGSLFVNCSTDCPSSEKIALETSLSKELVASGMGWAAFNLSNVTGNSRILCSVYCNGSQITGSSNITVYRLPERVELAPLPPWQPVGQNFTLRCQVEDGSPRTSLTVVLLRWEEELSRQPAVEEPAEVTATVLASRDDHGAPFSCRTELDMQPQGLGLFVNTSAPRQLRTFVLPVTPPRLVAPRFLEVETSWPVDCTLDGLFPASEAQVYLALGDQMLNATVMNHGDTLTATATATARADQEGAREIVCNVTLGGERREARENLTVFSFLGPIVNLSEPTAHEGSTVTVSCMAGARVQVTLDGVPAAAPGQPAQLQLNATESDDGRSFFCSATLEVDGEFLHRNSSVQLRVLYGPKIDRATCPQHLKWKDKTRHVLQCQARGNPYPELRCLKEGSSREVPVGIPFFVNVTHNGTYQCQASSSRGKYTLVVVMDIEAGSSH

B1: haFL: HA-tagged full length ICAM-R expressed in J77.50.3 cells (protein, UniProt P32942 1-547, looked up)
chain: MATMVPSVLWPRACWTLLVCCLLTPGVQGQEFLLRVEPQNPVLSAGGSLFVNCSTDCPSSEKIALETSLSKELVASGMGWAAFNLSNVTGNSRILCSVYCNGSQITGSSNITVYRLPERVELAPLPPWQPVGQNFTLRCQVEDGSPRTSLTVVLLRWEEELSRQPAVEEPAEVTATVLASRDDHGAPFSCRTELDMQPQGLGLFVNTSAPRQLRTFVLPVTPPRLVAPRFLEVETSWPVDCTLDGLFPASEAQVYLALGDQMLNATVMNHGDTLTATATATARADQEGAREIVCNVTLGGERREARENLTVFSFLGPIVNLSEPTAHEGSTVTVSCMAGARVQVTLDGVPAAAPGQPAQLQLNATESDDGRSFFCSATLEVDGEFLHRNSSVQLRVLYGPKIDRATCPQHLKWKDKTRHVLQCQARGNPYPELRCLKEGSSREVPVGIPFFVNVTHNGTYQCQASSSRGKYTLVVVMDIEAGSSHFVPVFVAVLLTLGVVTIVLALMYVFREHQRSGSYHVREESTYLPLTSMQPTEAMGEEPSRAE
modifications: full-length HA tag
notes: HA-tagged full length ICAM-R expressed in J77.50.3 cells
B2: Tyr479Phe: ICAM-R cytoplasmic domain point mutant (protein, UniProt P32942 30-547, looked up, variant Y479F)
Intercellular adhesion …: QEFLLRVEPQNPVLSAGGSLFVNCSTDCPSSEKIALETSLSKELVASGMGWAAFNLSNVTGNSRILCSVYCNGSQITGSSNITVYRLPERVELAPLPPWQPVGQNFTLRCQVEDGSPRTSLTVVLLRWEEELSRQPAVEEPAEVTATVLASRDDHGAPFSCRTELDMQPQGLGLFVNTSAPRQLRTFVLPVTPPRLVAPRFLEVETSWPVDCTLDGLFPASEAQVYLALGDQMLNATVMNHGDTLTATATATARADQEGAREIVCNVTLGGERREARENLTVFSFLGPIVNLSEPTAHEGSTVTVSCMAGARVQVTLDGVPAAAPGQPAQLQLNATESDDGRSFFCSATLEVDGEFLHRNSSVQLRVLYGPKIDRATCPQHLKWKDKTRHVLQCQARGNPYPELRCLKEGSSREVPVGIPFFVNVTHNGTYQCQASSSRGKYTLVVVMDIEAGSSHFVPVFVAVLLTLGVVTIVLALMFVFREHQRSGSYHVREESTYLPLTSMQPTEAMGEEPSRAE
B3: Tyr498Phe: ICAM-R cytoplasmic domain point mutant (protein, UniProt P32942 30-547, looked up, variant Y498F)
Intercellular adhesion …: B2 Intercellular adhesion … with F479Y, Y498F
B4: Tyr490Phe: ICAM-R cytoplasmic domain point mutant (protein, UniProt P32942 30-547, looked up, variant Y490F)
Intercellular adhesion …: B2 Intercellular adhesion … with F479Y, Y490F
B5: Leu499Ala: ICAM-R cytoplasmic domain point mutant (protein, UniProt P32942 30-547, looked up, variant L499A)
Intercellular adhesion …: B2 Intercellular adhesion … with F479Y, L499A
B6: Ser496Ala: ICAM-R cytoplasmic domain point mutant (protein, UniProt P32942 30-547, looked up, variant S496A)
Intercellular adhesion …: B2 Intercellular adhesion … with F479Y, S496A
B7: Ser489Ala: ICAM-R cytoplasmic domain point mutant (protein, UniProt P32942 30-547, looked up, variant S489A)
Intercellular adhesion …: B2 Intercellular adhesion … with F479Y, S489A
B8: Ser487Ala: ICAM-R cytoplasmic domain point mutant (protein, UniProt P32942 30-547, looked up, variant S487A)
Intercellular adhesion …: B2 Intercellular adhesion … with F479Y, S487A
B9: Ser503Ala: ICAM-R cytoplasmic domain point mutant (protein, UniProt P32942 30-547, looked up, variant S503A)
Intercellular adhesion …: B2 Intercellular adhesion … with F479Y, S503A
B10: Ser515Ala: ICAM-R cytoplasmic domain point mutant (protein, UniProt P32942 30-547, looked up, variant S515A)
Intercellular adhesion …: B2 Intercellular adhesion … with F479Y, S515A
B11: MuVHVS/MuVK: chimeric ICR-8.1: murine VH with Val2, Ser7 and murine VK, human IgG4/kappa constant regions (antibody, V domains shown)
VH: EVQLQQSGPELVKPGASVKISCKASGYSFTDCIILWVKQSHGKGLEWIGKINPYFGTTTYNLKFKGKATLTVDKSSSTAHMQLNSLTSEDSAVYYCARKEAYPDAMDYWGQGTSVTVSS
VL: DAVMTQTPLSLPVSLGDQASISCRSSQSLVHSNGDTYLHWYLQKPGQSPQLLIYKVSNRFSGVPDRFSGSGSGTDFTLKLSRVEAEDLGVYFCSQSTHVPYTFGGGTKLEIK

Tested on: J77.50.3 cell lines
Experiment: Cell spreading on ICR-1.1 coated plastic
Assay type: cell-based, human
Settings: 20 minutes at 37° C.
Method: To ascertain additional functional consequences of ICAM-R carboxyl terminal deletions, the Jurkat cell lines expressing the. ICAM-R variants described above were tested for the ability to adhere and spread on antibody coated plastic or to undergo antibody-mediated aggregation. Bacterial petri plates were coated with 50 μl drops of ICR-1.1 or w6/32 (10 μg/ml) (anti-MHC class I isotype matched control monoclonal antibody) in PBS for 120 minutes at 37° C. The plastic was rinsed twice prior to spotting 50 μl drops of J77.50.3 cell lines. Duplicate cell lines expressing these proteins at equivalent levels were tested. After 20 minutes at 37° C. the plate was flooded with 2% glutaraldehyde in PBS and incubated for 30 minutes to fix adherent cells. Fixed cells were rinsed twice with PBS and scored visually for the ability to flatten and spread. […] Weyrich et al., J. Clin. Invest., 95: 2297-2303 (1995) recently described the effect of a ICR-1.1 coated plastic surface on normal monocytes from peripheral blood. After two hours, these cells flattened down and spread with a similar overall morphology to that seen with the haFL expressing J77.50.3 cell line.

Molecule | spreading on ICR-1.1 coated plastic
B1 | spread onto the ICR-1.1 coated plastic surface
B2 | spread onto the ICR-1.1 coated plastic surface
B3 | spread onto the ICR-1.1 coated plastic surface
B4 | incapable of flattening down onto the ICR-1.1 coated surface
B5 | Neither ICAM-R mutation affected
B6 | Neither ICAM-R mutation affected

Tested on: J77.50.3 cells
Experiment: IL-2 induction in J77.50.3 lines expressing ICAM-R variants
Assay type: cell-based, human
Settings: repeated experiments; Vector 0.52
Method: This dose of antibody alone provides minimal signalling for IL-2 release. The OKT3 treatment was removed and replaced with buffer alone or anti-ICAM-R (ICR-1.1) (10 ug/ml in PBS-D) and incubated at 37° C. for at least 2 hours. Monoclonal antibody coating was done in replicates of two or more wells and pooled to provide sufficient quantities of conditioned media for ELISA and/or bioassay. Two hundred fifty thousand Jurkat cells or transfectants thereof, were placed into antibody coated wells or buffer coated negative control wells in 0.1 ml of RPMI complete medium. Following incubation of about 16-24 hrs at 37° C. in a humidified atmosphere containing 5% CO2, the medium was transferred to a fresh 96 well round bottom plate, spun to pellet cells carried over and transferred to a fresh plate. Samples were frozen and stored at −70° C. IL-2 ELISAs were performed using commercially available kits (Biosource Intl. Co., Carmarille, Calif.) by making serial dilutions of the samples.
Experiments were performed using two independently isolated cell lines for each plasmid construct or the vector alone. Stable lines expressing similar levels of ICAM-R variants, as determined by indirect flow cytometry, were chosen for functional studies. Cells were costimulated with plate immobilized monoclonal antibodies ICR-1.1 and OKT3, and IL-2 release from the lines was quantitated by ELISA as previously described in Example 25C. Results were expressed as fold increase of IL-2 released from cells plated onto co-immobilized ICR-1.1 (10 μg/ml) plus OKt3 (1 μg/ml) divided by release from OKT3 ([…]) alone. The full length ICAM-R protein (haFL) gave 3.1 fold induction. The deletions gave the following fold inductions: haCTΔ505 induction was 1.5 fold, haCTΔ493 induction was 1.3 fold, haCTΔ484 was 0.8 fold. Vector control induction was 0.7 fold. […] In addition, removal of the residues 505-518 leads to the most significant reduction in co-stimulatory responsiveness. This implies that residues 505-518 play a relatively larger role in the response as compared to residues 484-505.

Molecule | IL-2 Induction (Fold Stimulation)
B1 | 5.4 Fold
B2 | 4.9 Fold
B7 | 2.9 Fold
B3 | 1.6 Fold
B8 | 2.0 Fold
B4 | 1.8 Fold
B9 | 1.0 Fold
B10 | 2.1 Fold
B5 | ˜6 Fold
B6 | ˜6 Fold

Same assay, conditions: vector control 0.7 fold

Molecule | fold increase of IL-2 released (ICR-1.1 plus OKT3 divided by OKT3 alone)
B1 | 3.1 fold
B5 | Neither ICAM-R mutation affected IL-2 secretion
B6 | Neither ICAM-R mutation affected IL-2 secretion

Tested on: J77.50.3 cell lines
Experiment: ICR-1.1 induced aggregation of J77.50.3 lines
Assay type: cell-based, human
Settings: ICR-1.1 10 μg/ml; 1 and 24 hours
Method: One of these monoclonal antibodies (ICR-1.1) was used to induce aggregation of the J77.50.3 cell lines expressing either full length ICAM-R (haFL) or carboxy terminal variants of ICAM-R. ICR-1.1 was added to 200,000 cells at 10 μg/ml in 96 well plates and incubated 37° C. At 1 and 24 hours after incubation the wells were visually screened for aggregates.

Molecule | ICR-1.1 induced aggregation
B1 | aggregation competent
B2 | aggregation competent
B3 | aggregation competent
B4 | incapable of forming inducible aggregates
B5 | Neither ICAM-R mutation affected
B6 | Neither ICAM-R mutation affected

Same assay, conditions: repeated experiments; Vector 17

Molecule | Percent Aggregation
B1 | 55%
B7 | 25%
B8 | 61%
B9 | 64%
B10 | 15%
B5 | 60%
B6 | 60%

Molecular target: T1, baculovirus-produced soluble human ICAM-R
Experiment: ELISA binding of recombinant ICR-8.1 antibodies
Settings: humanized/chimeric ICR-8.1 chain combinations, human IgG4/kappa

binding to ICAM-R (ELISA), recombinant ICR-8.1 antibodies | Molecule
equivalence in binding to ICAM-R | B11
